Assay results published in patent publication US20140148355A1, “COMPOSITIONS AND METHODS FOR ANALYSIS OF H3K4 METHYLATED CHROMATIN” (UNIVERSITY OF OSLO, priority 2011, published 2014).

Columns and labels:
[1] = target: T1, methylated H3K4 peptides (panel of biotinylated histone tail peptides) (Homo sapiens, UniProt P68431); experiment: Histone peptide binding (pull-down) assay with biotinylated histone peptides; settings: for preference for methylation state of H3K4 peptides: pull-down with biotinylated histone peptides, anti-GST immunoblot
T1 construct: purchased Upstate Biotechnology
Description: (§1) FIG. 3 The ASHH2 CW domain binds histone H3 tails methylation on lysine 4. (A) Cartoon of the ASHH2 protein with CW, AWS and KMT (SET domain) indicated. The two recombinant proteins used in this study are also illustrated. (B) SDS-PAGE of purified GST and GST-ASHH2-CW. (C) Pull-down assay using biotinylated histone peptides and recombinant GST, GST-ASHH2-CW and GST-ING2-PHD as indicated. The ratio of proteins and peptides were 0.5 μg:0.5 μg. (D) Pull-down assay using biotinylated histone peptides and recombinant GST and GST-ASHH2-CW as indicated. The ratio of proteins and peptides were 1.0 μg:0.5 μg. (E) Surface plasmon resonance traces from an experiment with immobilised, biotinylated H3K4me1 peptide and GST-ASHH2-CW. (F) Dissociation constants for GST-ASHH2-CW and the three H3K4me peptides indicated calculated from surface plasmon resonance data. The number of replicates are indicated.
(§2) FIG. 4 CW domains from four different proteins bind methylated H3K4 peptides. (A) Cartoons of the proteins studied: human MORC4, Arabidopsis VAL1, and human ZCWPW1. (B, C) Pull-down assay using biotinylated histone peptides and (B) recombinant GST, GST-Val1-CW and GST-MORC4-CW or (C) GST, GST-ASHH2-CW, and GST-ZCWPW1-CW, as indicated. The ratio of proteins and peptides were equimolar.
(§3) FIG. 7 Probing the predicted histone tail binding site with mutant CW domains. […] The predicted binding site for the histone tail is indicated as in FIG. 6D. (B and C) Pull-down assays using biotinylated histone peptides and recombinant GST and GST-ASHH2-CW mutant proteins as indicated. The ratio of proteins and peptides were 1.0 μg:0.5 μg.
(§4) Histone peptide binding assays were performed as described by Shi et al (2006) with biotinylated histone peptides from Upstate Biotechnology. The protein-peptide ratio used is indicated in the legends to the figures. Bound proteins were visualized by immunoblotting using rabbit anti-GST antibodies Z-5 (SC-456) from Santa Cruz at a 1:20,000 dilution, and a donkey anti-rabbit HRP conjugate (Amersham NA934) at a 1:10,000 dilution.

H3K4me3 peptide = target: T2, H3K4me3 peptide (Homo sapiens, UniProt P68431); experiment: Histone peptide binding (pull-down) assay, H3K4me3 peptide; settings: protein:peptide 0.5 μg:0.5 μg
T2 construct: purchased Upstate Biotechnology
Description: as §1, §4

[2] = tested on: methylated H3K4 peptides (panel of biotinylated histone tail peptides); experiment: Histone peptide binding (pull-down) assay with biotinylated histone peptides; settings: panel incl. trimethylated H3K27 and H3K36 peptides
Description: as §1, §2, §3, §4

[3] = tested on: H3K4me1 in Arabidopsis chromatin; experiment: Chromatin pulldown (ChPD), western blot quantification, H3K4me1; type: binding; settings: chromatin from Arabidopsis seedlings, anti-H3K4me1 western blot
Source text: (§5) FIG. 8 Chromatin pulldown (ChPD) using the ASHH2 CW. […] Modified histones were visualised by western blot using antibodies as indicated. Molecular size markers are shown to the right. (B) qPCR with primers for assumed ASHH2 target genes on DNA isolated from seedling chromatin pulled down with GST-CWASHH2. ChPD with GST alone was used as a negative control. Data are shown as percent of input. The Ta3 retrotransposon was used as reference. Standard deviations are shown. (C) ChIP using antibodies against H3K4me1, H3K4me3 and H3K36me3 and primers for the same genes as in (B). Data are shown relative to Ta3. (D) ChPD from wt and ashh2 mutant seedlings as in (A) using antibodies as indicated. ChPD with GST alone was used as a negative control and histone H3 as reference.
(§6) Chromatin pull-down (ChPD) was performed using crude chromatin in ChIP dilution buffer (1.1% Triton X-100, 1.2 mM EDTA, 16.7 mM Tris-HCL pH 8, 167 mM NaCl) prepared as for ChIP (Gendrel et al., 2005) incubated with 8 μg GST-CW fusion protein and control proteins (only GST alone, or together with GST-CW-W874A and GST-WIYLD) over night. For western blotting, the pulled down chromatin was washed three times in ChIP dilution buffer, run on a 15% SDS-PAGE and blotted onto a PVDF membrane. […]

[4] = target: T3, three methylated forms of H3K27-peptides (Homo sapiens, UniProt P68431); experiment: Histone peptide binding (pull-down) assay, methylated H3K27 peptides; settings: protein:peptide 1.0 μg:0.5 μg
T3 construct: purchased Upstate Biotechnology
Description: as §1, §4

[5] = tested on: H3K4 methylated chromatin; experiment: Chromatin pulldown (ChPD) with western blot detection; type: binding; settings: antibodies against each of the three H3K4 methylation states; Arabidopsis seedling chromatin
Source text: as §5, §6

[6] = target: biotinylated H3 peptide trimethylated on lysine 4 (H3K4me3) (Homo sapiens, UniProt P68431); experiment: Surface plasmon resonance (BIAcore T100) binding to immobilised H3K4me3 peptide; settings: GST-tagged protein 0.1 μM to 10 μM, HBS-P buffer
Description: (§7) Surface plasmon resonance binding assays were performed on a BIAcore T100 biosensor according to the manufacturers protocols using immobilized, biotinylated H3 peptides monomethylated (0.54 ng), dimethylated (0.24 ng), or trimethylated (0.48 ng) on lysine 4. GST-tagged ASHH2 CW protein in five different concentrations in a range from 0.1 μM to 10 μM was injected for 2 min at a flow rate of 10 μl/min. Each sample injection was followed by injection of HBS-P buffer (10 mM HEPES pH 7; 150 mM NaCl) alone for 5 min at a flow rate of 5 μl/min. Kd values were obtained using the Biacore T100 Evaluation software 2.0.1. Measurements were repeated 2 to 5 times.

[7] = target: biotinylated H3 peptide monomethylated on lysine 4 (H3K4me1) (Homo sapiens, UniProt P68431); experiment: Surface plasmon resonance (BIAcore T100) binding to immobilised H3K4me1 peptide; settings: GST-tagged protein 0.1 μM to 10 μM, HBS-P buffer
Description: as §7

[8] = tested on: H3K4me2 in Arabidopsis chromatin; experiment: Chromatin pulldown (ChPD), western blot quantification, H3K4me2; type: binding; settings: chromatin from Arabidopsis seedlings, anti-H3K4me2 western blot
Source text: as §5, §6

[9] = target: biotinylated H3 peptide dimethylated on lysine 4 (H3K4me2) (Homo sapiens, UniProt P68431); experiment: Surface plasmon resonance (BIAcore T100) binding to immobilised H3K4me2 peptide; settings: GST-tagged protein 0.1 μM to 10 μM, HBS-P buffer
Description: as §7

[10] = tested on: chromatin associated with genes regulated by ASHH2; experiment: Chromatin pulldown (ChPD) followed by qPCR on ASHH2 target genes; type: binding, Arabidopsis; settings: seedling chromatin; GST alone as negative control
Source text: as §5, §6

B1: GST-MORC4-CW: human MORC4 CW domain (nt 1236-1422, from HEK293 cDNA) as GST fusion protein (protein)
chain: TVARPIPKVPDQTWVQCDECLKWRKLPGKIDPSMLPARWFCYYNSHPKYRRCSVPEEQELTD
modifications: also: GST fusion partner not part of the given chain
notes: human MORC4 CW domain (nt 1236-1422, from HEK293 cDNA) as GST fusion protein
preference for methylation state of H3K4 peptides [1]: preference for H3K4me2

B2: W865A: GST-ASHH2-CW mutant, tryptophan 865 to alanine (protein)
chain: MVVDVTIEDSYSTESAAVRCDDCFKWRRIPASVVGSIDESSRWICMNNSDKRFADCSKSQEMSNEEINEELGIGQDEADAYDCDAAKRG
modifications: left off: a dimerising Fc or GST; large carriers; small tags and cut ends
notes: GST-ASHH2-CW mutant, tryptophan 865 to alanine
histone tail binding of mutant ASHH2 CW domains ([1]; pull-down, protein:peptide 1.0 μg:0.5 μg): abolished histone tail binding

B3: GST-Val1-CW: Arabidopsis VAL1 CW domain (nt 1575-1797) as GST fusion protein (protein)
chain: VFGKRTIVTTKPSGEQERWATCDDCSKWRRLPVDALLSFKWTCIDNVWDVSRCSCSAPEESLKELENVLKVGRE
modifications: left off: a dimerising Fc or GST
notes: Arabidopsis VAL1 CW domain (nt 1575-1797) as GST fusion protein
preference for methylation state of H3K4 peptides ([1]; listed as VAL1): strongest preference for K4me3
preference for methylation state of H3K4 peptides ([1]; listed as VAL1 CW): clear preference for H3 Kme2 and me3 peptides

B4: GST-ASHH2-CW: Arabidopsis ASHH2 CW domain (nt 2547-2811) expressed and purified as a GST-fusion protein from bacteria (protein)
chain: VVDVTIEDSYSTESAWVRCDDCFKWRRIPASVVGSIDESSRWICMNNSDKRFADCSKSQEMSNEEINEELGIGQDEADAYDCDAAKRG
modifications: left off: a dimerising Fc or GST
notes: Arabidopsis ASHH2 CW domain (nt 2547-2811) expressed and purified as a GST-fusion protein from bacteria
binding to the H3K4me3 peptide (H3K4me3 peptide): close to background levels
preference for methylation state of H3K4 peptides [1]: preference for mono- and dimethylated H3K4 peptides
sequence selectivity on histone peptide panel [2]: only binds the methylated H3K4 peptides
bound H3K4me1 chromatin relative to input chromatin [3]: 4.4 times of input material (2.5%)
binding to methylated H3K27-peptides [4]: no binding was observed
pull down of H3K4 methylated chromatin (western blot signal) [5]: Strong signals
Kd [6]: 4000 nM
Kd [7]: 1150 nM
bound H3K4me2 chromatin relative to input chromatin [8]: 3.3 times of input material (2.5%)
Kd [9]: 2100 nM
binding of chromatin associated with ASHH2-regulated genes (real-time PCR) [10]: significantly above background levels

B5: GST-ZCWPW1-CW: human ZCWPW1 CW domain (nt 714-942, from HEK293 cDNA) as GST fusion protein (protein)
chain: IRDQQKGEISGFGQCLVWVQCSFPNCGKWRRLCGNIDPSVLPDNWSCDQNTDVQYNRCDIPEETWTGLESDVAYAS
modifications: left off: a dimerising Fc or GST
notes: human ZCWPW1 CW domain (nt 714-942, from HEK293 cDNA) as GST fusion protein
preference for methylation state of H3K4 peptides [1]: clear preference for H3 Kme2 and me3 peptides
